This data set has as its system RecQ helicase (Escherichia coli). Particulars: single-molecule hairpin re-zipping blockage (magnetic tweezers); no ATP; Ftest 10 pN; non-specific binding along template.

Experimental findings from US20150362488 are described below.

As to “mechanically opened DNA hairpin (ssDNA template)”, the K half was determined as 0.226 nM.
